This note sets out measurements from patent US20140023585A1, “177 LUTETIUM-LABELED BOMBESIN ANALOGS FOR RADIOTHERAPY” (UNIVERSITATSSPITAL BASEL, priority 2010, published 2014).

SMILES strings stand for the structures.

Series [1] concerns PC-3 tumors. Briefly: Radionuclide therapy study with repeated injections. It counts as in vivo, nude mice. To be noted: end of the study, compared to controls. How it is done:
(§1) A first therapy study was conducted on 25 nude mice (15-20 g) subcutaneously implanted with PC-3 ([…]). For toxicity study the same therapy protocol was applied to 25 CD1 mice. Thirteen days after implantation the mice were randomly divided in 5 groups and treated as described below: • 1. […] 200 pmol of ^natcompound 2 • 5. PBS
According to the protocol agreed upon, three injections per week (days 0, 2, 4) were done and the procedure was repeated (days 14, 16, 18) after one pause week. Based on the biodistribution data of compound 3 with ^111In we observed that injections after 48 h would maintain stable the uptake in the tumor. The pause week is, in our opinion, important for the safety of the animals. The mice were periodically monitored by measuring tumor size and body mass. Animals with loss of >20% of their original weight or with tumor size >20 mm in diameter were sacrificed. Tumor sizes were determined by caliper measurements in two dimensions and tumor volumes were calculated assuming an elliptical shape.

Series [2] in a line: Toxicity study, same therapy protocol in CD1 mice. It is filed as in vivo. The method, then:
as §1

Regarding `CC(C)C[C@H](NC(=O)C[C@H](O)[C@H](CC(C)C)NC(=O)[C@H](Cc1c[nH]cn1)NC(=O)CNC(=O)[C@@H](NC(=O)[C@H](C)NC(=O)[C@H](Cc1c[nH]c2ccccc12)NC(=O)[C@H](CCC(N)=O)NC(=O)[C@@H](Cc1ccccc1)NC(=O)CN1CCC(NC(=O)CN2CCN(CC(=O)O)CCN(CC(=O)O)CCN(CC(=O)O)CC2)CC1)C(C)C)C(N)=O` [compound 2, [^177Lu]-DOTA-4-amino-1-carboxymethylpiperidine-D-Phe-Gln-Trp-Ala-Val-Gly-His-Sta-Leu-NH2, metal not drawn], the histopathological changes entry in series [1] was “no compound (radio-peptide) related histopathological changes”. Further, the “survival and health of CD1 animals” value in series [2] was “alive and look healthy”. In addition, the “body weight of CD1 animals” value in series [2] (stabilized after 5-6 months) was “increased”.
